The results in this text go back to patent publication US5871954A, “Fatty acid analog enzyme substrates” (Washington University, priority 1993, dated 1999).

The subject of data set [1] is Saccharomyces cerevisiae strain BJ405. The data set can be described thus: toxicity / growth rate of yeast cells. It counts as cell-based. As for the experimental part: (§1) Saccharomyces cerevisiae strain BJ405 [MATα, trpl, prbl, prcl, pep4-3; Hemmings et al., Proc. Natl. Acad. Sci. USA 78, 435-439 (1981)] (previously referred to as JR153) was grown to mid-log phase (OD660nm=1.0-1.2) in YPD medium (1% yeast extract/2% Bactopeptone/2% Dextrose) at 30° C. in a rotary shaker water bath. Cells were pretreated with Cerulenin at 2 μg/ml for 15 minutes and then incubated for 20-45 minutes with unlabeled myristate, palmitate or fatty acid analog at 100 μM in the presence of either 5 μM [9,10-^3 H(N)]-myristate (22.4 Ci/mmol) or L-[^35 S]methionine (1106 Ci/mmol) at 30 μCi/ml of culture.
Furthermore, 100 μM myristate and 100 μM analog produced a similar modest reduction (10-15%) in total protein synthesis (measured by the incorporation of [^35 S]methionine into TCA precipitable protein) compared to control cells which were not exposed to exogenous fatty acid.

Data set [2] in a line: 2-octanol/water partition. The data set is classed as physicochemical. As for the experimental part:
For these Examples, each analog synthesized is characterized by ^1 H and 13C NMR as well as mass spectroscopy. The analogs are then characterized kinetically as NMT substrates. Briefly, fatty acid analogs are converted to their CoA esters with Pseudomonas CoA ligase and incubated with the iodinated peptide GNAAS[^125 I]YRR and a source of NMT. […] The radiolabelled peptide is then used at concentrations which will lead to 50% enzyme saturation (i.e., at its Km) for the determination of fatty acid analog kinetic characteristics. Representative analogs with sulfur or oxygen in the backbone of the fatty acid chain serve as good substrates for NMT in vitro and will compete for incorporation of ^3 H labelled myri-state into yeast proteins in vivo. In addition, these analogs differ markedly in hydrophobicity from myri-state as measured both by C18 reverse phase HPLC elution profiles and by 2-octanol/water partition coefficients. The analog CH3 O (CH2)11 COOH, for example, partitions into water 20 fold better than myristate. It is believed that these analogs will be incorporated into mammalian acylproteins in vivo and that their incorporation into these proteins will drastically alter protein processing or targeting. […]

In another data set the target is T1, yeast NMT (Saccharomyces cerevisiae, UniProt P14743).
T1 construct: 11,000-fold purified preparation of yeast NMT; from tissue; host or cells: yeast
T1 sequence (P14743 1-455): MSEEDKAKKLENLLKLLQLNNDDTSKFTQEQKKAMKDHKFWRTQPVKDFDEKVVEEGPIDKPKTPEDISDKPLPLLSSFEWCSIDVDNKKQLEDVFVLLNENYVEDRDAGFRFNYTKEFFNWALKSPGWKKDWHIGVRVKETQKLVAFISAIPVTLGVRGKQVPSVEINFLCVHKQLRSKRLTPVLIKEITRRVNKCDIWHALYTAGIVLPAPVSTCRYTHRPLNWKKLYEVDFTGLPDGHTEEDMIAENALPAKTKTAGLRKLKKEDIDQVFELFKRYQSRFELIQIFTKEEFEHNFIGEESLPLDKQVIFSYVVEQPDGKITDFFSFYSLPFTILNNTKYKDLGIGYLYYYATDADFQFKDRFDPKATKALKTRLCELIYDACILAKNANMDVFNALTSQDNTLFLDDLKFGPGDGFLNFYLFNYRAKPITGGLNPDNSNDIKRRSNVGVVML
The experiment in a line: in vitro yeast NMT assay, kinetics of fatty acid analog substrates with iodinated peptide GNAAS[125I]YRR. The data set is classed as biochemical. The following applies: Table 2; relative to myristate control 100%; peptide at its Km. The text has this: (§2) Similar results were obtained using an 11,000-fold purified preparation of yeast NMT [Towler et al., Proc. Natl. Acad. Sci. USA 84, 2708-2712 (1987)].
(§3) Other illustrative examples of the oxy- and thio-substituted fatty acid analog substrate compounds of the invention were synthesized in Examples 6 to 14 and tested in Example 15 as substrates for the yeast NMT.
(§4) For these Examples, each analog synthesized is characterized by ^1 H and 13C NMR as well as mass spectroscopy. The analogs are then characterized kinetically as NMT substrates. Briefly, fatty acid analogs are converted to their CoA esters with Pseudomonas CoA ligase and incubated with the iodinated peptide GNAAS[^125 I]YRR and a source of NMT. […] The radiolabelled peptide is then used at concentrations which will lead to 50% enzyme saturation (i.e., at its Km) for the determination of fatty acid analog kinetic characteristics. Representative analogs with sulfur or oxygen in the backbone of the fatty acid chain serve as good substrates for NMT in vitro and will compete for incorporation of ^3 H labelled myri-state into yeast proteins in vivo. In addition, these analogs differ markedly in hydrophobicity from myri-state as measured both by C18 reverse phase HPLC elution profiles and by 2-octanol/water partition coefficients. The analog CH3 O (CH2)11 COOH, for example, partitions into water 20 fold better than myristate. It is believed that these analogs will be incorporated into mammalian acylproteins in vivo and that their incorporation into these proteins will drastically alter protein processing or targeting. It is further believed that the incorporation of fatty acid analogs of both myristate and palmitate into ester linked and phosphatidyl inositol glycan linked acylproteins will also dramatically alter their properties. Since many viral proteins and oncogenes are acylated, these compounds represent a new class of potential antiviral and antineoplastic agents.

Data set [3] relates to known yeast myristoylprotein of Mr 20 kDa. The data set can be described thus: competition for incorporation of [3H]myristate into a yeast myristoylprotein. It counts as cell-based, Saccharomyces cerevisiae strain BJ405. To be noted: in words. As for the experimental part: as §1
Cells were cooled on ice 5 minutes, pelleted at 10,000×g, then broken and extracted by the method of Towler et al., Proc. Natl. Acad. Sci. USA 83, 2812-2816 (1986). Total protein synthesis was assayed by trichloroacetic acid (TCA) precipitation. Proteins were separated by SDS-12% polyacrylamide gel electrophoresis, and [^3 H]fatty acid incorporation into cellular acyl-proteins was assayed by autoradiography followed by laser densitometry.

Substrate in data set [4]: CCCCCCCCCCCCCC(=O)O
The data set can be described thus: in vitro yeast NMT assay, kinetics of fatty acid analog substrates with iodinated peptide GNAAS[125I]YRR. The data set is classed as biochemical. The following applies: other: Table 2; peptide at its Km.
Excerpt: as §2, §3, §4

Substrate in data set [5]: C#CCOCCCCCCCCCC(=O)O
The description is as above. To be noted: other: Table 2; peptide at its Km. It counts as biochemical.
Excerpt: as §2, §3, §4

Substrate in data set [6]: CCCSCCCCCCCCCC(=O)O
The description is as above. To be noted: other: Table 2; peptide at its Km. It counts as biochemical.
Excerpt: as §2, §3, §4

Substrate in data set [7]: CCOCCCCCCCCCCC(=O)O
The description is as above. The data set is classed as biochemical. The following applies: other: Table 2; peptide at its Km.
Excerpt: as §2, §3, §4

Substrate in data set [8]: COCCCCCCCCCCCC(=O)O
Described as above. To be noted: other: Table 2; peptide at its Km. It counts as biochemical.
Excerpt: as §2, §3, §4

Substrate in data set [9]: CCCCCCCCOCCCCC(=O)O
The description is as above. It counts as biochemical. To be noted: other: Table 2; peptide at its Km.
Excerpt: as §2, §3, §4

Substrate in data set [10]: CCCCOCCCCCCCCCCC(=O)O
The data set is described as above. The data set is classed as biochemical. The following applies: other: Table 2; peptide at its Km.
Excerpt: as §2, §3, §4

Substrate in data set [11]: CCCCCCCCSCCCCC(=O)O
The data set is described as above. The data set is classed as biochemical. The following applies: other: Table 2; peptide at its Km.
Excerpt: as §2, §3, §4

Substrate in data set [12]: CCCOCCCCCCCCCC(=O)O
Described as above. It counts as biochemical. The following applies: other: Table 2; peptide at its Km.
Excerpt: as §2, §3, §4

Substrate in data set [13]: CCSCCCCCCCCCCC(=O)O
The data set is described as above. It counts as biochemical. The following applies: other: Table 2; peptide at its Km.
Excerpt: as §2, §3, §4

Substrate in data set [14]: COCCCCCCCCCCC(=O)O
The data set is described as above. The data set is classed as biochemical. To be noted: other: Table 2; peptide at its Km.
Excerpt: as §2, §3, §4

Broadly, the Km is the substrate concentration at which the rate is half of its maximum.

For the molecule `COCCCCCCCCCCCC(=O)O` [CH3 O(CH2)11 COOH, 12-(Methoxy)dodecanoic acid], the “growth rates of cells vs 100 μM myristate” value in data set [1] is recorded as “No difference in the growth rates”. Moreover, the toxicity to cells entry in data set [1] (100 μM) was “does not appear to be toxic to cells”. Further, the “partition into water vs myristate” value in [2] is 20 fold. Further, the “Acyl CoA Vm” value on yeast NMT was ~ 110%. Also, the “entry into yeast / competition with labeled myristate for incorporation into yeast protein” value in data set [3] was “can successfully enter yeast and compete with labeled myristate for incorporation into a known myristoylprotein”.

B1: yeast NMT (Saccharomyces cerevisiae S288C) (protein)
chain: T1 sequence (P14743 1-455)
notes: 11,000-fold purified preparation of yeast NMT; from tissue; host or cells: yeast
Turning to B1, the Km was 0.6 µM in data set [4]; 6.5 µM in [5]; 1.5 µM in data set [6]; 1.8 µM in data set [7]; 2 µM in [8]; 1.6 µM in data set [9]. The Km was found to be 1 µM in data set [10]; 1.5 µM in data set [11]; 6.1 µM in [12]; 1.4 µM in data set [13]; 6.9 µM in data set [14].
